Source: patent US11504441B2, “Radiolabeled compounds targeting the prostate-specific membrane antigen” (PROVINCIAL HEALTH SERVICES AUTHORITY, priority 2019, dated 2022)

Legend:
in vivo = conditions: male, NODSCID 1L2RγKO, mouse, iv, total radioactivity
Method: (§1) LNCaP cell line was obtained from ATCC (LNCaP clone FGC, CRL-1740). […] Cells were cultured in PRM I 1640 medium supplemented with 10% FBS, penicillin (100 U/mL) and streptomycin (100 μg/mL) at 37° C. in a humidified incubator containing 5% CO2. Cells grown to 80-90% confluence were then washed with sterile phosphate-buffered saline (1× PBS pH 7.4) and collected by trypsinization. The collected cells concentration was counted with a Hausser Scientific (Horsham, Pa.) Hemacytometer.
(§2) Imaging and biodistribution experiments were performed using NODSCID 1 L2RγKO male mice. Mice were anesthetized by inhalation with 2% isoflurane in oxygen, and implanted subcutaneously with 1×10^7 LNCaP cells behind left shoulder. Mice were imaged or used in biodistribution studies when the tumor grew up to reach 5-8 mm in diameter during 5-6 weeks.
(§3) PET imaging experiments were conducted using Siemens Inveon micro PET/CT scanner. Each tumor bearing mouse was injected 6-8 MBq of Ga-68 labeled tracer through the tail vein under anesthesia (2% isoflurane in oxygen). The mice were allowed to recover and roam freely in their cage. After 50 min, the mice were sedated again with 2% isoflurane in oxygen inhalation and positioned in the scanner. A 10-min CT scan was conducted first for localization and attenuation correction after segmentation for reconstructing the PET images. Then, a 10-min static PET imaging was performed to determined uptake in tumor and other organs. The mice were kept warm by a heating pad during acquisition. For biodistribution studies, the mice were injected with the radiotracer as described above. The mice was anesthetized with 2% isoflurane inhalation, and euthanized by CO2 inhalation. Blood was withdrawn immediately from the heart, and the organs/tissues of interest were collected. The collected organs/tissues were weighed and counted using a Perkin Elmer (Waltham, Mass.) Wizard2 2480 gamma counter. The uptake in each organ/tissue was normalized to the injected dose using a standard curve, and expressed as the percentage of the injected dose per gram of tissue (% ID/g).
(§4) LNCaP cell line was obtained from ATCC (LNCaP clone FGC, CRL-1740). […] Cells were cultured in PRM I 1640 medium supplemented with 10% FBS, penicillin (100 U/mL) and streptomycin (100 μg/mL) at 37° C. in a humidified incubator containing 5% CO2. Cells grown to 80-90% confluence were then washed with sterile phosphate-buffered saline (1× PBS pH 7.4), and collected by trypsinization. The collected cell concentration was counted with a Hausser Scientific (Horsham, Pa.) Hemacytometer.
(§5) Imaging and biodistribution experiments were performed using NODSCID 1L2RγKO male mice. Mice were anesthetized by inhalation with 2% isoflurane in oxygen, and implanted subcutaneously with 1×10^7 LNCaP cells behind left shoulder. Mice were imaged or used in biodistribution studies when the tumor grew up to reach 5-8 mm in diameter during 5-6 weeks.
(§6) PET imaging experiments were conducted using Siemens Inveon micro PET/CT scanner. Each tumor bearing mouse was injected 6-8 MBq of Ga-68 or F-18 labeled tracer through the tail vein under anesthesia (2% isoflurane in oxygen). The mice were allowed to recover and roam freely in their cage. After 50 min, the mice were sedated again with 2% isoflurane in oxygen inhalation and positioned in the scanner. A 10-min CT scan was conducted first for localization and attenuation correction after segmentation for reconstructing the PET images. Then, a 10-min static PET imaging was performed to determined uptake in tumor and other organs.
(§7) For biodistribution studies, the mice were injected with the radiotracer as described above.

[1] = system: PSMA-expressing LNCaP cancer xenografts; design: species or system mice; conditions: mouse, in vivo, iv
Method: as §2
PET imaging experiments were conducted using Siemens Inveon micro PET/CT scanner. Each tumor bearing mouse was injected 6-8 MBq of Ga-68 labeled tracer through the tail vein under anesthesia (2% isoflurane in oxygen). The mice were allowed to recover and roam freely in their cage. After 50 min, the mice were sedated again with 2% isoflurane in oxygen inhalation and positioned in the scanner. […] Then, a 10-min static PET imaging was performed to determined uptake in tumor and other organs. […] The collected organs/tissues were weighed and counted using a Perkin Elmer (Waltham, Mass.) Wizard2 2480 gamma counter. The uptake in each organ/tissue was normalized to the injected dose using a standard curve, and expressed as the percentage of the injected dose per gram of tissue (% ID/g). […]
PET imaging experiments were conducted using Siemens Inveon micro PET/CT scanner. […] Then, a 10-min static PET imaging was performed to determined uptake in tumor and other organs.

[2] = system: PSMA-expressing LNCaP cancer xenografts
Method: as §1, §2, §3, §4, §5, §6, §7

[3] = male, NODSCID 1L2RγKO, mouse, in vivo, iv, 1 h

SMILES: O=C(O)CCC[C@H](NC(=O)N[C@@H](CCCCNC(=O)[C@H](Cc1c2ccccc2cc2ccccc12)NC(=O)[C@H]1CC[C@H](CNC(=O)CN2CCN(CC(=O)O)CCN(CC(=O)O)CCN(CC(=O)O)CC2)CC1)C(=O)O)C(=O)O [68Ga-HTK03149, metal not drawn]
- tissue uptake at 1 h (in vivo; Adrenal glands uptake): 0.46 ± 0.26 %ID/g
- tissue uptake at 3 h (in vivo; Adrenal glands uptake): 0.46 ± 0.16 %ID/g
- tissue uptake at 1 h (in vivo; Blood uptake): 0.96 ± 0.17 %ID/g
- tissue uptake at 3 h (in vivo; Blood uptake): 0.35 ± 0.14 %ID/g
- tissue uptake at 1 h (in vivo; Bone uptake): 0.1 ± 0.03 %ID/g
- tissue uptake at 1 h (in vivo; Brain uptake): 0.02 ± 0.01 %ID/g
- tissue uptake at 3 h (in vivo; Brain uptake): 0.02 ± 0.01 %ID/g
- tissue uptake at 1 h (in vivo; Fat uptake): 0.22 ± 0.16 %ID/g
- tissue uptake at 3 h (in vivo; Fat uptake): 0.16 ± 0.09 %ID/g
- tissue uptake at 1 h (in vivo; Heart uptake): 0.29 ± 0.07 %ID/g
- tissue uptake at 3 h (in vivo; Heart uptake): 0.09 ± 0.02 %ID/g
- tissue uptake at 1 h (in vivo; Intestine uptake): 0.3 ± 0.07 %ID/g
- tissue uptake at 3 h (in vivo; Intestine uptake): 0.18 ± 0.04 %ID/g
- tissue uptake at 1 h (in vivo; Kidneys uptake): 6.79 ± 4.91 %ID/g
- tissue uptake at 3 h (in vivo; Kidneys uptake): 2.33 ± 1.02 %ID/g
- tissue uptake at 1 h (in vivo; Lacrimal uptake): 0.1 ± 0.03 %ID/g
- tissue uptake at 3 h (in vivo; Lacrimal uptake): 0.21 ± 0.2 %ID/g
- tissue uptake at 1 h (in vivo; Liver uptake): 0.35 ± 0.17 %ID/g
- tissue uptake at 3 h (in vivo; Liver uptake): 0.13 ± 0.02 %ID/g
- tissue uptake at 1 h (in vivo; Lungs uptake): 0.82 ± 0.37 %ID/g
- tissue uptake at 3 h (in vivo; Lungs uptake): 0.22 ± 0.05 %ID/g
- tissue uptake at 1 h (in vivo; Muscle uptake): 0.14 ± 0.04 %ID/g
- tissue uptake at 3 h (in vivo; Muscle uptake): 0.05 ± 0.02 %ID/g
- tissue uptake at 1 h (in vivo; Pancreas uptake): 0.17 ± 0.03 %ID/g
- tissue uptake at 3 h (in vivo; Pancreas uptake): 0.06 ± 0.02 %ID/g
- tissue uptake at 1 h (in vivo; Salivary uptake): 0.23 ± 0.05 %ID/g
- tissue uptake at 3 h (in vivo; Salivary uptake): 0.15 ± 0.13 %ID/g
- tissue uptake at 1 h (in vivo; Seminal uptake): 6.46 ± 7.52 %ID/g
- tissue uptake at 3 h (in vivo; Seminal uptake): 1.19 ± 1.04 %ID/g
- tissue uptake at 1 h (in vivo; Spleen uptake): 0.37 ± 0.12 %ID/g
- tissue uptake at 3 h (in vivo; Spleen uptake): 0.24 ± 0.07 %ID/g
- tissue uptake at 1 h (in vivo; Stomach uptake): 0.09 ± 0.04 %ID/g
- tissue uptake at 3 h (in vivo; Stomach uptake): 0.03 ± 0.01 %ID/g
- tissue uptake at 1 h (in vivo; Tail uptake): 0.86 ± 0.47 %ID/g
- tissue uptake at 3 h (in vivo; Tail uptake): 0.13 ± 0.06 %ID/g
- tissue uptake at 1 h (in vivo; Testes uptake): 0.38 ± 0.16 %ID/g
- tissue uptake at 3 h (in vivo; Testes uptake): 0.11 ± 0.03 %ID/g
- tissue uptake at 1 h (in vivo; Thyroid uptake): 0.29 ± 0.08 %ID/g
- tissue uptake at 3 h (in vivo; Thyroid uptake): 0.1 ± 0.04 %ID/g
- tissue uptake at 1 h (in vivo; Tumor uptake): 22.1 ± 13.9 %ID/g
- tissue uptake at 3 h (in vivo; Tumor uptake): 33.5 ± 10.7 %ID/g
- excreta dose per gram or mL at 1 h (in vivo; Urine uptake): 336 ± 127 %ID/g
- excreta dose per gram or mL at 3 h (in vivo; Urine uptake): 148 ± 102 %ID/g
- activity in other organs in PET images [1]: very low activity in other organs
- Adrenal glands uptake [2, 3]: 0.33 ± 0.11 % ID/g
- Blood uptake [2, 3]: 0.70 ± 0.17 % ID/g
- Kidneys uptake [2, 3]: 4.15 ± 1.46 % ID/g
- Liver uptake [2, 3]: 0.25 ± 0.06 % ID/g
- Lungs uptake [2, 3]: 0.53 ± 0.09 % ID/g
- Seminal uptake [2, 3]: 3.66 ± 5.36 % ID/g
- Spleen uptake [2, 3]: 0.27 ± 0.05 % ID/g
- Stomach uptake [2, 3]: 0.07 ± 0.01 % ID/g
- Tail uptake [2, 3]: 0.58 ± 0.14 % ID/g
- Thyroid uptake [2, 3]: 0.20 ± 0.05 % ID/g
- Tumor uptake [2, 3]: 19.1 ± 6.37 % ID/g
- Urine uptake [2, 3]: 319 ± 183 % ID/g
- Blood: Salivary ratio ([2]; mouse, in vivo): 3.21 ± 0.64

SMILES: O=C(O)CN1CCN(CC(=O)O)CCN(CC(=O)NC[C@H]2CC[C@H](C(=O)N[C@@H](Cc3c4ccccc4cc4ccccc34)C(=O)NCCCC[C@H](NC(=O)N[C@@H](C[C@H](F)C(=O)O)C(=O)O)C(=O)O)CC2)CCN(CC(=O)O)CC1 [68Ga-HTK04040, metal not drawn]
- tissue uptake at 1 h (in vivo; Adrenal glands uptake): 2.68 ± 0.7 %ID/g
- tissue uptake at 1 h (in vivo; Blood uptake): 0.94 ± 0.12 %ID/g
- tissue uptake at 1 h (in vivo; Bone uptake): 0.18 ± 0.03 %ID/g
- tissue uptake at 1 h (in vivo; Brain uptake): 0.25 ± 0.43 %ID/g
- tissue uptake at 1 h (in vivo; Fat uptake): 0.6 ± 0.3 %ID/g
- tissue uptake at 1 h (in vivo; Heart uptake): 0.88 ± 0.08 %ID/g
- tissue uptake at 1 h (in vivo; Intestine uptake): 0.53 ± 0.04 %ID/g
- tissue uptake at 1 h (in vivo; Kidneys uptake): 76 ± 22.6 %ID/g
- tissue uptake at 1 h (in vivo; Lacrimal uptake): 0.06 ± 0.02 %ID/g
- tissue uptake at 1 h (in vivo; Liver uptake): 0.94 ± 0.11 %ID/g
- tissue uptake at 1 h (in vivo; Lungs uptake): 2.01 ± 0.21 %ID/g
- tissue uptake at 1 h (in vivo; Muscle uptake): 0.64 ± 0.5 %ID/g
- tissue uptake at 1 h (in vivo; Pancreas uptake): 0.61 ± 0.08 %ID/g
- tissue uptake at 1 h (in vivo; Salivary uptake): 1.29 ± 0.24 %ID/g
- tissue uptake at 1 h (in vivo; Seminal uptake): 0.51 ± 0.12 %ID/g
- tissue uptake at 1 h (in vivo; Spleen uptake): 2.58 ± 0.8 %ID/g
- tissue uptake at 1 h (in vivo; Stomach uptake): 0.23 ± 0.08 %ID/g
- tissue uptake at 1 h (in vivo; Tail uptake): 0.85 ± 0.54 %ID/g
- tissue uptake at 1 h (in vivo; Testes uptake): 0.74 ± 0.04 %ID/g
- tissue uptake at 1 h (in vivo; Thyroid uptake): 1.14 ± 0.14 %ID/g
- tissue uptake at 1 h (in vivo; Tumor uptake): 18.8 ± 5.06 %ID/g
- excreta dose per gram or mL at 1 h (in vivo; Urine uptake): 325 ± 66.8 %ID/g
- Blood: Salivary ratio ([2]; mouse, in vivo): 0.73 ± 0.06
- Tumor: Blood ratio ([2]; mouse, in vivo): 20.4 ± 6.02
- Tumor: Kidney ratio ([2]; mouse, in vivo): 0.26 ± 0.08
- Tumor: Muscle ratio ([2]; mouse, in vivo): 43.2 ± 24.9
- Tumor: Salivary ratio ([2]; mouse, in vivo): 14.9 ± 4.40

SMILES: O=C(O)CCC[C@H](NC(=O)N[C@@H](CCCCNC(=O)[C@H](Cc1c2ccccc2cc2ccccc12)NC(=O)c1ccc(NC(=O)CN2CCN(CC(=O)O)CCN(CC(=O)O)CCN(CC(=O)O)CC2)cc1)C(=O)O)C(=O)O [68Ga-HTK04041, metal not drawn]
- tissue uptake at 1 h (in vivo; Adrenal glands uptake): 0.31 ± 0.05 %ID/g
- tissue uptake at 1 h (in vivo; Blood uptake): 1 ± 0.09 %ID/g
- tissue uptake at 1 h (in vivo; Bone uptake): 0.13 ± 0.02 %ID/g
- tissue uptake at 1 h (in vivo; Brain uptake): 0.02 %ID/g
- tissue uptake at 1 h (in vivo; Fat uptake): 0.11 ± 0.03 %ID/g
- tissue uptake at 1 h (in vivo; Heart uptake): 0.3 ± 0.03 %ID/g
- tissue uptake at 1 h (in vivo; Intestine uptake): 0.19 ± 0.04 %ID/g
- tissue uptake at 1 h (in vivo; Kidneys uptake): 6.82 ± 2.93 %ID/g
- tissue uptake at 1 h (in vivo; Lacrimal uptake): 0.11 ± 0.05 %ID/g
- tissue uptake at 1 h (in vivo; Liver uptake): 0.37 ± 0.08 %ID/g
- tissue uptake at 1 h (in vivo; Lungs uptake): 0.82 ± 0.08 %ID/g
- tissue uptake at 1 h (in vivo; Muscle uptake): 0.13 ± 0.03 %ID/g
- tissue uptake at 1 h (in vivo; Pancreas uptake): 0.15 ± 0.02 %ID/g
- tissue uptake at 1 h (in vivo; Salivary uptake): 0.26 ± 0.04 %ID/g
- tissue uptake at 1 h (in vivo; Seminal uptake): 1.68 ± 3.44 %ID/g
- tissue uptake at 1 h (in vivo; Spleen uptake): 0.4 ± 0.11 %ID/g
- tissue uptake at 1 h (in vivo; Stomach uptake): 0.07 ± 0.03 %ID/g
- tissue uptake at 1 h (in vivo; Tail uptake): 0.57 ± 0.05 %ID/g
- tissue uptake at 1 h (in vivo; Testes uptake): 0.31 ± 0.05 %ID/g
- tissue uptake at 1 h (in vivo; Thyroid uptake): 0.29 ± 0.04 %ID/g
- tissue uptake at 1 h (in vivo; Tumor uptake): 12.2 ± 3.15 %ID/g
- excreta dose per gram or mL at 1 h (in vivo; Urine uptake): 396 ± 92.3 %ID/g
- Blood: Salivary ratio ([2]; mouse, in vivo): 3.96 ± 0.51
- Tumor: Blood ratio ([2]; mouse, in vivo): 12.4 ± 3.62
- Tumor: Kidney ratio ([2]; mouse, in vivo): 2.06 ± 0.89
- Tumor: Muscle ratio ([2]; mouse, in vivo): 95.1 ± 33.7
- Tumor: Salivary ratio ([2]; mouse, in vivo): 48.2 ± 12.2

SMILES: O=C(O)CCC[C@H](NC(=O)N[C@@H](CCCCNC(=O)[C@H](Cc1cccc(I)c1)NC(=O)[C@H]1CC[C@H](CNC(=O)CN2CCN(CC(=O)O)CCN(CC(=O)O)CCN(CC(=O)O)CC2)CC1)C(=O)O)C(=O)O [68Ga-HTK04053, metal not drawn]
- tissue uptake at 1 h (in vivo; Adrenal glands uptake): 0.12 ± 0.03 %ID/g
- tissue uptake at 1 h (in vivo; Blood uptake): 0.29 ± 0.05 %ID/g
- tissue uptake at 1 h (in vivo; Bone uptake): 0.04 ± 0.01 %ID/g
- tissue uptake at 1 h (in vivo; Brain uptake): 0.01 %ID/g
- tissue uptake at 1 h (in vivo; Fat uptake): 0.04 ± 0.01 %ID/g
- tissue uptake at 1 h (in vivo; Heart uptake): 0.09 ± 0.02 %ID/g
- tissue uptake at 1 h (in vivo; Intestine uptake): 0.15 ± 0.03 %ID/g
- tissue uptake at 1 h (in vivo; Kidneys uptake): 3.48 ± 2.39 %ID/g
- tissue uptake at 1 h (in vivo; Lacrimal uptake): 0.05 ± 0.01 %ID/g
- tissue uptake at 1 h (in vivo; Liver uptake): 0.13 ± 0.07 %ID/g
- tissue uptake at 1 h (in vivo; Lungs uptake): 0.28 ± 0.04 %ID/g
- tissue uptake at 1 h (in vivo; Muscle uptake): 0.05 ± 0.01 %ID/g
- tissue uptake at 1 h (in vivo; Pancreas uptake): 0.06 ± 0.02 %ID/g
- tissue uptake at 1 h (in vivo; Salivary uptake): 0.06 ± 0.02 %ID/g
- tissue uptake at 1 h (in vivo; Seminal uptake): 7.61 ± 12.5 %ID/g
- tissue uptake at 1 h (in vivo; Spleen uptake): 0.12 ± 0.03 %ID/g
- tissue uptake at 1 h (in vivo; Stomach uptake): 0.06 ± 0.04 %ID/g
- tissue uptake at 1 h (in vivo; Tail uptake): 0.2 ± 0.07 %ID/g
- tissue uptake at 1 h (in vivo; Testes uptake): 0.11 ± 0.02 %ID/g
- tissue uptake at 1 h (in vivo; Thyroid uptake): 0.09 ± 0.01 %ID/g
- tissue uptake at 1 h (in vivo; Tumor uptake): 4.96 ± 2.75 %ID/g
- excreta dose per gram or mL at 1 h (in vivo; Urine uptake): 523 ± 330 %ID/g
- Blood: Salivary ratio ([2]; mouse, in vivo): 5.19 ± 1.73
- Tumor: Blood ratio ([2]; mouse, in vivo): 16.8 ± 7.00
- Tumor: Kidney ratio ([2]; mouse, in vivo): 1.84 ± 1.26
- Tumor: Muscle ratio ([2]; mouse, in vivo): 93.7 ± 27.0
- Tumor: Salivary ratio ([2]; mouse, in vivo): 84.3 ± 32.1

SMILES: O=C(O)CN1CCN(CC(=O)O)CCN(CC(=O)NC[C@H]2CC[C@H](C(=O)N[C@@H](Cc3c4ccccc4cc4ccccc34)C(=O)NCCCC[C@H](NC(=O)N[C@@H](C[C@H](F)C(=O)O)C(=O)O)C(=O)O)CC2)CCN(CC(=O)O)CC1 [HTK04040]
- tissue uptake at 1 h (in vivo; kidney uptake): 76 %ID/g
- binding to PSMA (in words) ([2]; concluded from biodistribution): bind well to PSMA
- kidney and salivary gland uptake (in words) ([2]; mouse, in vivo): much less kidney and salivary gland uptake
